The target in the assay is human BCMA-His (human) (UniProt Q02223). In words: BLI (Octet), 1:1 fit. Background: Biolayer interferometry detects binding as a change in optical thickness at a sensor tip.
Chain of REGN-BCMA/CD3 (REGN5458) (bispecific antibody) (VH): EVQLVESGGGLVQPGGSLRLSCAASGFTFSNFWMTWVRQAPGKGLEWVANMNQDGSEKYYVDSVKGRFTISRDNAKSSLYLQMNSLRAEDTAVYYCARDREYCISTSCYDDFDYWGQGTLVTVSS
Chain of REGN-BCMA/CD3 (REGN5458) (bispecific antibody) (VL): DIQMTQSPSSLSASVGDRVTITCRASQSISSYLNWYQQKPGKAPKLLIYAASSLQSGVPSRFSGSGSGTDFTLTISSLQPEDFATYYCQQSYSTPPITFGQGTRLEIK
Chain of REGN-BCMA/CD3 (REGN5458) (bispecific antibody) (chain): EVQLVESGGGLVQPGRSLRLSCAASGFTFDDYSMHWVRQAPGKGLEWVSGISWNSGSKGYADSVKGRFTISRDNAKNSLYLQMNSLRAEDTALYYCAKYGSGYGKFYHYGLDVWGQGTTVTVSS
Chain of human BCMA-His (human) (Q02223 1-54): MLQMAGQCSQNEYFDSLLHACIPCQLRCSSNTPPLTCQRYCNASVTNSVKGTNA
Chain of JNJ-BCMA/CD3 (Teclistamab) (bispecific antibody) (heavy): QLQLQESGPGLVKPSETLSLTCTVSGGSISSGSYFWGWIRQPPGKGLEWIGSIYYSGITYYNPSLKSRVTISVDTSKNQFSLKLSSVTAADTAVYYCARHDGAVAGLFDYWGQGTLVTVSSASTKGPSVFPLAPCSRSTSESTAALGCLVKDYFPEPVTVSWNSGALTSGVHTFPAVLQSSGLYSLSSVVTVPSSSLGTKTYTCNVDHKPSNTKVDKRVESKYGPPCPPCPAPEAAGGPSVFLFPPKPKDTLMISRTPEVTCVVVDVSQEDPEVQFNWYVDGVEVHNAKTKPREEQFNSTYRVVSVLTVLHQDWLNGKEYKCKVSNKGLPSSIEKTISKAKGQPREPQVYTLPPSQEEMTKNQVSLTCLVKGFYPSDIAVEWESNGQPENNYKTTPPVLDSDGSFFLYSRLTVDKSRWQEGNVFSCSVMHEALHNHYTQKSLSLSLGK
Chain of JNJ-BCMA/CD3 (Teclistamab) (bispecific antibody) (light): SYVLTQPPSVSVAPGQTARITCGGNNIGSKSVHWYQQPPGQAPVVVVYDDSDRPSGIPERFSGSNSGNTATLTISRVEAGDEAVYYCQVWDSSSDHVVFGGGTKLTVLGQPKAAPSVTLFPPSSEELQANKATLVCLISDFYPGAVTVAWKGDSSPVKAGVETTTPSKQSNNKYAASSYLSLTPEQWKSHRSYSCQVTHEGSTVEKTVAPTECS
Chain of JNJ-BCMA/CD3 (Teclistamab) (bispecific antibody) (heavy): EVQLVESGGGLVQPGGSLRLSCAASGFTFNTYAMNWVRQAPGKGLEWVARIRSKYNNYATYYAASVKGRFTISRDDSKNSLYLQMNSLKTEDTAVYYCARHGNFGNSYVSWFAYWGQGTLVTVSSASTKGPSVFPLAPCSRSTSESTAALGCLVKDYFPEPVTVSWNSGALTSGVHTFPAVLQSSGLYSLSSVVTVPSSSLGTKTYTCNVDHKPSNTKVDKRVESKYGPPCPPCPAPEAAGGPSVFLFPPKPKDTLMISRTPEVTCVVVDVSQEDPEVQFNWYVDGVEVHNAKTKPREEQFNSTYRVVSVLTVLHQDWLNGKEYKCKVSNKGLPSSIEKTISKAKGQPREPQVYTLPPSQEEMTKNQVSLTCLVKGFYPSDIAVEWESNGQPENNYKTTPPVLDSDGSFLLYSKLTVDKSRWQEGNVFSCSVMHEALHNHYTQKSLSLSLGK
Chain of JNJ-BCMA/CD3 (Teclistamab) (bispecific antibody) (light): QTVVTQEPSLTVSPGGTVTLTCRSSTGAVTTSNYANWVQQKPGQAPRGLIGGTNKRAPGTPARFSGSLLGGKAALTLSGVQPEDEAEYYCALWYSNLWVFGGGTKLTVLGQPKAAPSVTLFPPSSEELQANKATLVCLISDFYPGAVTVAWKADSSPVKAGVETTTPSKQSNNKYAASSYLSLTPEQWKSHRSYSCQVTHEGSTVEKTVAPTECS
By Kd is commonly meant the constant that tells how readily two partners part at equilibrium. Read a low Kd as higher affinity. The term koff denotes the rate constant with which the complex falls apart. Low values mean slow dissociation, high ones fast dissociation. Usually kon stands for a measure of how fast the partners come together. Read a low kon as slow association. Substance “JNJ-BCMA/CD3 (Teclistamab) (bispecific antibody)” displayed a Kd of 0.435 nM, a koff of 0.000722 s⁻¹ and a kon of 1.66e+06 M⁻¹ s⁻¹.

In turn, “REGN-BCMA/CD3 (REGN5458) (bispecific antibody)” came in with a Kd of 1.13 nM, a koff of 0.000792 s⁻¹ and a kon of 701000 M⁻¹ s⁻¹.

In the case of “Roche-BCMA/CD3 (Alnuctamab) (bispecific antibody)”, the Kd worked out at 0.205 nM, the koff came to 0.000262 s⁻¹ and the kon was 1.28e+06 M⁻¹ s⁻¹.

Values taken from patent EP4725970A1.
